Measurements as given in patent publication US20210187106A1 (AstraZeneca / MedImmune, published 2021).

T1: recombinant human LIF receptor (hLIFR) (human, UniProt P42702 45-833, limits assumed)
T1 sequence (looked up): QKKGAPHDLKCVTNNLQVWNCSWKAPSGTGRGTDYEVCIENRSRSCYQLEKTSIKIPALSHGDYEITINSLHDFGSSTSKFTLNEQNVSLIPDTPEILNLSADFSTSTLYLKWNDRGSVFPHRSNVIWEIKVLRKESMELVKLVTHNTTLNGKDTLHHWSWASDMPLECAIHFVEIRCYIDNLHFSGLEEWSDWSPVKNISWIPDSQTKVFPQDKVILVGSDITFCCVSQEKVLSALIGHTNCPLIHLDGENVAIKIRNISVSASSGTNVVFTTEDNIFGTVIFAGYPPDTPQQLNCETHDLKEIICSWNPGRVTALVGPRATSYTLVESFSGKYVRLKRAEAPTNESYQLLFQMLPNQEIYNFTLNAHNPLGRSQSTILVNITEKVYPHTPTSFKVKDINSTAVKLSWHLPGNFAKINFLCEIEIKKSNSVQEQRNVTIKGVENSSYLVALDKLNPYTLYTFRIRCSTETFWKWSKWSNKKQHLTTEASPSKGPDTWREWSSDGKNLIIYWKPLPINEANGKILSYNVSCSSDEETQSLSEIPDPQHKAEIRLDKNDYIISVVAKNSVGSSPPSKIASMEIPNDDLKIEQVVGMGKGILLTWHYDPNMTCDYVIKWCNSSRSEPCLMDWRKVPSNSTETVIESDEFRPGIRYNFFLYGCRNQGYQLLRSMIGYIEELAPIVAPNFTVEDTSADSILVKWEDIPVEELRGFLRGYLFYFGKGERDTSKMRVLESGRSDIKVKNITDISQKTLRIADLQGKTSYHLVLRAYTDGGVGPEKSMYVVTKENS

T2: recombinant human gp130 (human, UniProt P40189 23-619, limits assumed)
T2 sequence (looked up): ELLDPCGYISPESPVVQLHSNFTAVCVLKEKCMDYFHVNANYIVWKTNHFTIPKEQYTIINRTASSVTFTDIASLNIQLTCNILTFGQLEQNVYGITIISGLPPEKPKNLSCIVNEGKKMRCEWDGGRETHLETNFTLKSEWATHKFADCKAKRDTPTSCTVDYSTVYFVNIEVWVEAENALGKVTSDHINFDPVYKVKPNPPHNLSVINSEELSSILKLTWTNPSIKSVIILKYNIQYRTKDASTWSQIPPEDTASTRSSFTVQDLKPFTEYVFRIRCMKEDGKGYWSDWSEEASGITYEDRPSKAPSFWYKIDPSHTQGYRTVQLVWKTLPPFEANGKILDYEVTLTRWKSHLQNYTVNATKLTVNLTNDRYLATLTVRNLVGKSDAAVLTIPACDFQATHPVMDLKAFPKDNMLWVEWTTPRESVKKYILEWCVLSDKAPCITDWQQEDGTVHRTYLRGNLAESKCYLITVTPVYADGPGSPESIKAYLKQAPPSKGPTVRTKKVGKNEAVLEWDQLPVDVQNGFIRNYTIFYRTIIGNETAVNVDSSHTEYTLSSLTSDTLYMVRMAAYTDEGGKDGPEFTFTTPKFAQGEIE

B1: human Leukemia Inhibitory Factor (LIF), expression source not stated (ligand)
chain: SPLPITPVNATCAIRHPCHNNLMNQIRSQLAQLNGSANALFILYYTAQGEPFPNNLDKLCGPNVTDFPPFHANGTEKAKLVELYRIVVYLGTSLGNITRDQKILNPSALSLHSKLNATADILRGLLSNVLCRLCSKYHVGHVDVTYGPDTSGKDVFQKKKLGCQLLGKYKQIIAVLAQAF
notes: also called hLIF; human LIF

What was measured:
[1] = target: B1; assay: cell-based or functional assay
[2] = target: T1, recombinant human LIF receptor (hLIFR); assay: Octet RED96 control experiment, h5D8 captured on AHC biosensors
From the text: Subsequently, the biosensors were dipped in different concentrations of LIFR.

human IL-6 (E. coli) = target: T3, human IL-6 (E. coli) (human, UniProt P05231 30-212, limits assumed); assay: BLI (Octet), h5D8 amine-coupled to AR2G biosensors, cytokine as analyte; table legend: ND = no binding
T3 construct: also called huIL-6 (E. coli)
T3 sequence (P05231 30-212 limits assumed): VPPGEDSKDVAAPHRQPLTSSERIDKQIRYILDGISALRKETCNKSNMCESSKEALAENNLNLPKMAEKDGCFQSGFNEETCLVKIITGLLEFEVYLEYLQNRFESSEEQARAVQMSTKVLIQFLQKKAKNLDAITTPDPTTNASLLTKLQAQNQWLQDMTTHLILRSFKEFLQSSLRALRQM
Method: Kinetics experiments were then performed with the following Dip and Read steps at 30° C., 1000rpm: vi) 60 seconds Baseline in 1× kinetics buffer; vii) 180 seconds Association of appropriate serial dilutions of a cytokine in 1× kinetics buffer; viii) 300 seconds Dissociation in 1× kinetics buffer; ix) Three Regeneration/Neutralization cycles alternating between 10 mM glycine pH 2.0 and 1× kinetics buffer respectively (5 seconds in each for 3 cycles). Following regeneration, the biosensors were reused for subsequent binding analyses.

recombinant human gp130 = target: T2, recombinant human gp130; assay: ELISA, LIF pre-incubated with B09 and added to a plate coated with recombinant human gp130; the antibody part of the complex detected with peroxidase anti-rat IgG

Row | IC50 for biological inhibition (pSTAT3, MSD assay) under serum starved conditions in U-251 cells [1] [picomolar] | binding result [2] | binding result (human IL-6 (E. coli)) | binding result (recombinant human gp130) | Binder
1 | 490 | no binding | no binding |  | h5D8 (humanized 5D8, H2L2 clone) (antibody, V domains shown, Humanized IgG tested as a bivalent antibody; Only VH and VL are tied to h5D8 by name; also called G (H2L2); H5D8-1 IgG) VH: QVQLQESGGGLVKPGGSLRLSCAASGFTFSHAWMHWVRQAPGKGLEWVGQIKAKSDDYATYYAESVKGRFTISRDDSKNTLYLQMNSLKTEDTAVYYCTCWEWDLDFWGQGTMVTVSS VL: DIVMTQTPLSSPVTLGQPASISCRSSQSLLDSDGHTYLNWLQQRPGQPPRLLIYSVSNLESGVPDRFSGSGAGTDFTLKISRVEAEDVGVYYCMQATHAPPYTFGQGTKLEIK
2 |  |  |  | binds | B1
